Data: PMC13031973 (Nature Communications, 2026)

Tests used:
[1] = target: T1, purified proteasome subunit RPN1 (PSMD2) (human, UniProt Q13200 1-908); assay: SPR
[2] = target: T1, purified proteasome subunit RPN1 (PSMD2); assay: ITC

T1 sequence (Q13200 whole entry): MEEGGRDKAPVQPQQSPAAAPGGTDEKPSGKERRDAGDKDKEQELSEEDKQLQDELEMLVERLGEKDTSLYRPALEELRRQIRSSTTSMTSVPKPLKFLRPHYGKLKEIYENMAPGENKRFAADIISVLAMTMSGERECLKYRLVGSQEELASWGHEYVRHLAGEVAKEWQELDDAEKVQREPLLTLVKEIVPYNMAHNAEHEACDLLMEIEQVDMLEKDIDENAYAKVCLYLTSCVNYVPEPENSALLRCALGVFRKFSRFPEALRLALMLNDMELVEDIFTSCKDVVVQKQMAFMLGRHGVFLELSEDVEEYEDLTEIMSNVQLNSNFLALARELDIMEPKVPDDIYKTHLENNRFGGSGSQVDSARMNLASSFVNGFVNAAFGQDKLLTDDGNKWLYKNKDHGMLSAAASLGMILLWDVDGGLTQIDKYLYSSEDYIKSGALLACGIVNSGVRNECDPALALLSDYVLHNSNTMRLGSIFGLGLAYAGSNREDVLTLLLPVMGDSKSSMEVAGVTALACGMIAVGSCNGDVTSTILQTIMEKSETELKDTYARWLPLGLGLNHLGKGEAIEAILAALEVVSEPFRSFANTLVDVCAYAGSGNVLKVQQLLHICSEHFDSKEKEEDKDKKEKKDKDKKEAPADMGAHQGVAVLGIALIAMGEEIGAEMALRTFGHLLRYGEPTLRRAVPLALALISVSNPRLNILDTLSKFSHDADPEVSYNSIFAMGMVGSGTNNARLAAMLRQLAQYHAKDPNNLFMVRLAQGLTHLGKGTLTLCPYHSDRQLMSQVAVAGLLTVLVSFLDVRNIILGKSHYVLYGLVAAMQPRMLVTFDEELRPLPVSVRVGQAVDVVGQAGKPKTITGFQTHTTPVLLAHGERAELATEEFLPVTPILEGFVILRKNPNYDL

Row | Binder | Kd [1] [µM] | Kd [2] [µM]
1 | MIDN(337-468) (domain or fragment) SPASPAPDLAPRTTSCEKLTAAPSASLLQGQSQIRMCKPPGDRLRQTENRATRCKVERLQLLLQQKRLRRKARRDARGPYHWSPSRKAGRSDSSSSGGGGSPSEASGLGLDFEDSVWKPEVNPDIKSEFVVA | 0.39 | ~0.13
2 | MIDN(337-432) (domain or fragment) SPASPAPDLAPRTTSCEKLTAAPSASLLQGQSQIRMCKPPGDRLRQTENRATRCKVERLQLLLQQKRLRRKARRDARGPYHWSPSRKAGRSDSSSS | 0.663 | ~0.146
